Measurements taken from the supplement of paper PMC10567573.

B1: CCDC6 (parent)
chain: ASVTIQARAEQEEEFISNTLFKKI

Variants of: B1
Assay: protein stability index of a GFP-peptide fusion (GPS, HEK-293T) (PSI 1-6); higher = more stable
Conditions: c terminus: a fixed tail appended
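Note: lentivirally expressed fusions sorted by FACS into six bins by GFP to DsRed ratio, PSI derived from sequencing read proportions per bin multiplied by bin number.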

Protein stability index of substitutions, site by site:
T4: Q 3.74 | H 3.61 | A 4.46 | G 3.63 | N 3.98 | F 2.44 | L 3.21 | C 3.52 | I 3.33 | S 3.86 | V 2.88 | M 3.2 | Y 2.56 | W 2.06 | E 4.41 | R 3.14
Q6: W 2.94 | G 3.73 | H 3.49 | T 3.53 | A 3.47 | P 4.2 | N 3.75 | K 3.98 | I 1.97 | D 4.32 | R 3.26 | Y 1.94 | S 3.35 | C 2.81 | E 4.26 | F 2.89
S2: G 3.92 | L 2.32 | T 3.33 | Y 2.19 | E 4.11 | R 3.35 | D 4.58 | W 2.37 | F 2.11 | Q 3.71 | C 2.84 | I 3.08 | V 2.73
I5: E 4.58 | T 4.28 | G 4.75 | M 4.29 | F 3.96 | N 4.49 | D 4.84 | R 4.44 | Y 3.73 | V 4 | C 4.5 | K 4.65 | H 4.32 | S 4.24 | P 4.7 | W 3.66
E12: S 2.95 | C 2.35 | K 3.17 | V 2.19 | L 2.07 | H 2.83 | T 2.68 | F 2.12 | P 3.03 | W 2.21 | N 3.06 | G 2.94 | I 1.69 | A 2.58 | M 1.9
S17: D 4.38 | F 2.98 | N 3.59 | L 3.35 | G 3.5 | V 3.18 | R 3.26 | W 2.54 | Y 2.9 | K 4.03 | M 3.06 | H 3.58 | T 4.27 | I 2.85
I24: R 4.03 | F 3.66 | D 4.85 | A 4.14 | W 3.59 | E 4.58 | Q 4.36 | K 4.8 | Y 3.56 | L 4.23 | G 4.48 | C 4.52
Q11: I 2.39 | D 3.99 | A 3.52 | E 4.13 | L 2.97 | T 3.4 | Y 2.91 | H 3.37 | G 3.49 | W 2.07 | K 3.4 | R 2.83 | P 3.67 | C 2.97
N18: S 3.54 | A 3.27 | K 3.87 | L 2.56 | E 4.09 | V 1.5 | R 3.07 | P 3.96 | T 3.75 | W 2.43 | D 4.34 | F 2.27
E14: C 2.08 | Q 2.99 | Y 2.31 | L 1.89 | K 3.2 | I 2.22 | H 2.7 | D 3.31 | N 2.95 | T 2.87 | G 3.02 | R 2.52 | M 2.99 | V 2.7 | S 2.79
L20: Y 3.69 | M 4.44 | H 4 | K 4.15 | D 4.76 | V 3.82 | W 2.91 | P 4.14 | R 4.09 | F 3.46 | S 4.68 | N 4.42 | A 3.94 | T 4.64 | G 4.66
K23: V 2.73 | Q 3.17 | F 2.01 | M 2.35 | D 3.21 | G 3.21 | T 3.34 | Y 1.98 | L 2.11 | E 3.89 | P 3.19 | R 3.28 | W 2.23 | A 3.23
V3: C 1.9 | W 3.32 | D 4.89 | S 4.38 | Q 4.42 | N 4.6 | T 4.57 | R 3.9 | E 4.86 | G 4.44 | Y 3.42 | P 4.5 | A 4.51 | K 4.33 | L 3.84
E10: F 2.29 | K 3.15 | H 3.25 | V 2.27 | N 3.1 | T 3.22 | W 1.54 | D 3.4 | G 2.38 | Q 3.22 | L 2.15 | M 2.95 | P 2.83 | Y 2.03
A7: D 4.31 | Q 3.93 | R 3 | F 1.98 | T 3.85 | S 3.9 | P 3.67 | W 2.74
K22: T 2.86 | S 3.64 | R 2.92 | D 3.49 | Y 2.21 | E 3.74 | G 3.49 | V 1.91 | C 2.17 | P 4.13 | A 2.87 | L 2.19
R8: D 4.23 | P 4 | G 4.13 | Q 4.14 | C 3.27 | V 3.31 | M 3.12 | W 3.27 | T 3.58 | N 3.69 | S 4.05 | H 3.78 | K 3.79 | Y 3.21
F15: V 4.52 | Y 3.78 | L 3.73 | K 4.13 | G 4.4 | S 4.03 | I 4.18 | P 4.61 | W 2.98 | Q 4.46 | M 3.67 | R 4.09 | H 3.72
A1: K 3.68 | M 3.1 | E 4.39 | Q 4.09 | G 3.98 | C 3.07 | Y 2.27 | I 1.84 | L 2.48 | W 1.86 | H 3.85 | D 4.27 | F 2.08
F21: I 3.58 | S 4.37 | P 4.52 | H 3.88 | M 4.46 | C 4.76 | N 4.42 | K 4.7 | E 4.93 | W 3.39 | A 4.66 | V 4.39 | Y 3.72 | L 4.78
I16: D 4.34 | Q 4.66 | T 3.95 | N 4.57 | H 4.28 | V 4.05 | G 4.43 | C 4.11 | A 3.84 | S 4.25 | K 4.53 | P 4.35 | F 3.49 | E 4.53 | R 3.92 | Y 3.42 | W 2.92
T19: Y 2.96 | S 3.47 | I 2.94 | N 3.12 | F 2.72 | C 3.25 | A 3.49 | H 3.36 | R 3.84 | M 3.03 | D 3.77 | P 4 | L 2.82 | E 3.81 | G 4.04
E13: V 2.41 | N 3.16 | G 3.39 | C 3.07 | K 3.71 | H 2.29 | W 2.08 | Y 2 | L 2.38 | S 3.11 | M 2.58 | R 3.18 | D 3.54 | A 2.8 | F 2.23
A9: E 4.16 | P 3.87 | I 2.62 | S 3.79 | K 3.6 | G 3.67 | L 2.5 | V 2.91 | W 2.27 | Q 4.09 | Y 2.72 | R 3.61
